Test results from US20040116342A1 (INSTITUT PASTEUR, published 2004).
Where no end group is shown, it is not given here.

Legend:
[1] = target: T1, modified tritiated Substance P: [(3,4 3H) Pro2-Sar9-Met(O2)11]-Substance P, P20366
T1 chain: RPKPQQFFGLM

[2] = target: T2, SMR1-QHNPR (SMR1-Pentapeptide)
T2 chain: QHNPR

[3] = target: T3, rat Neutral EndoPeptidase 24-11 (NEP), membrane-bound, in rat tissue membrane preparations and fresh tissue … (rat, UniProt P07861 2-750); assay: cell-based or functional assay
T3 sequence (looked up): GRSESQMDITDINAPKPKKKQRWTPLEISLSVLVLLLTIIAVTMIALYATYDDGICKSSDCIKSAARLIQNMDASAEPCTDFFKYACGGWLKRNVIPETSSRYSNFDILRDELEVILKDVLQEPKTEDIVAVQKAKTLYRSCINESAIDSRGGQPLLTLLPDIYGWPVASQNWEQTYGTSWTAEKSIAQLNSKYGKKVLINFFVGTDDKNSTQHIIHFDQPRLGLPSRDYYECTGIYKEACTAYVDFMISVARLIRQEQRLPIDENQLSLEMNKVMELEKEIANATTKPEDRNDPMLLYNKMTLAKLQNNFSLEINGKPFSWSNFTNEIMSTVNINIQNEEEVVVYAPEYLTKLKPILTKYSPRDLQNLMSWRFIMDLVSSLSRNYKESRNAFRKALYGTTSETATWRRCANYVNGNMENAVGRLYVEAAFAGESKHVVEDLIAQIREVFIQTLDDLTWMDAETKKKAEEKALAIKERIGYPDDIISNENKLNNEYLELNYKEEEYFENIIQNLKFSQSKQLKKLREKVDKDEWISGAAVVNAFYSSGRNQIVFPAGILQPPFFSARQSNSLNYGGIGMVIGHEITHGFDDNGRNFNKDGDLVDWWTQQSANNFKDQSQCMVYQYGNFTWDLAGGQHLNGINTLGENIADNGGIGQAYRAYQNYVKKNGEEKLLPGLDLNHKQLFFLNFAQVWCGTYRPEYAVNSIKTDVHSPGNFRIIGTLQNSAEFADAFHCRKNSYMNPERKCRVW

[4] = target: T4, purified rabbit renal NEP (rabbit, UniProt P08049 2-750, limits assumed); assay: cell-based or functional assay
T4 sequence (looked up): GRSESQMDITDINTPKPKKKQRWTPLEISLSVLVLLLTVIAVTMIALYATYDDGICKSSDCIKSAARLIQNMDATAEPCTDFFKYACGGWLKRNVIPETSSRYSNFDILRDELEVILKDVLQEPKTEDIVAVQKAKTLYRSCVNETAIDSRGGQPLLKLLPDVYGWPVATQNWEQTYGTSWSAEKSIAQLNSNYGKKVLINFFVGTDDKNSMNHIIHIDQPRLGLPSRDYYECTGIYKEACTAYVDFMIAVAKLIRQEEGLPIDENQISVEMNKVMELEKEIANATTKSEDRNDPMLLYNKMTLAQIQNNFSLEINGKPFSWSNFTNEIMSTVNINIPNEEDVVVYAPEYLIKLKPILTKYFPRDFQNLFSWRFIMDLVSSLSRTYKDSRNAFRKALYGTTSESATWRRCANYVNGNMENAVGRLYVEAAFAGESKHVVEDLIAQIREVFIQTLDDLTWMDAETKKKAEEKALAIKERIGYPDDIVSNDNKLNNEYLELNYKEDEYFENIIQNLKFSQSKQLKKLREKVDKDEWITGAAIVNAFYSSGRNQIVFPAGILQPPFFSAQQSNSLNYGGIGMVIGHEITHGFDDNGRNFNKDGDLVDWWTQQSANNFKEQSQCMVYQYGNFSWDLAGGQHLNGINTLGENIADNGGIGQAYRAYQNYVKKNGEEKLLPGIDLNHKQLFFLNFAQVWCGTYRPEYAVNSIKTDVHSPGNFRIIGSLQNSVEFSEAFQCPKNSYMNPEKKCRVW

B1: purified rabbit renal NEP (protein)
chain: GRSESQMDITDINTPKPKKKQRWTPLEISLSVLVLLLTVIAVTMIALYATYDDGICKSSDCIKSAARLIQNMDATAEPCTDFFKYACGGWLKRNVIPETSSRYSNFDILRDELEVILKDVLQEPKTEDIVAVQKAKTLYRSCVNETAIDSRGGQPLLKLLPDVYGWPVATQNWEQTYGTSWSAEKSIAQLNSNYGKKVLINFFVGTDDKNSMNHIIHIDQPRLGLPSRDYYECTGIYKEACTAYVDFMIAVAKLIRQEEGLPIDENQISVEMNKVMELEKEIANATTKSEDRNDPMLLYNKMTLAQIQNNFSLEINGKPFSWSNFTNEIMSTVNINIPNEEDVVVYAPEYLIKLKPILTKYFPRDFQNLFSWRFIMDLVSSLSRTYKDSRNAFRKALYGTTSESATWRRCANYVNGNMENAVGRLYVEAAFAGESKHVVEDLIAQIREVFIQTLDDLTWMDAETKKKAEEKALAIKERIGYPDDIVSNDNKLNNEYLELNYKEDEYFENIIQNLKFSQSKQLKKLREKVDKDEWITGAAIVNAFYSSGRNQIVFPAGILQPPFFSAQQSNSLNYGGIGMVIGHEITHGFDDNGRNFNKDGDLVDWWTQQSANNFKEQSQCMVYQYGNFSWDLAGGQHLNGINTLGENIADNGGIGQAYRAYQNYVKKNGEEKLLPGIDLNHKQLFFLNFAQVWCGTYRPEYAVNSIKTDVHSPGNFRIIGSLQNSVEFSEAFQCPKNSYMNPEKKCRVW
initial velocity of substance P hydrolysis by purified rabbit renal NEP (Vi) [1]: Vi=140 pM/min/µg enzyme

B2: rat Neutral EndoPeptidase 24-11 (NEP), membrane-bound, in rat tissue membrane preparations and fresh tissue slices (protein)
chain: GRSESQMDITDINAPKPKKKQRWTPLEISLSVLVLLLTIIAVTMIALYATYDDGICKSSDCIKSAARLIQNMDASAEPCTDFFKYACGGWLKRNVIPETSSRYSNFDILRDELEVILKDVLQEPKTEDIVAVQKAKTLYRSCINESAIDSRGGQPLLTLLPDIYGWPVASQNWEQTYGTSWTAEKSIAQLNSKYGKKVLINFFVGTDDKNSTQHIIHFDQPRLGLPSRDYYECTGIYKEACTAYVDFMISVARLIRQEQRLPIDENQLSLEMNKVMELEKEIANATTKPEDRNDPMLLYNKMTLAKLQNNFSLEINGKPFSWSNFTNEIMSTVNINIQNEEEVVVYAPEYLTKLKPILTKYSPRDLQNLMSWRFIMDLVSSLSRNYKESRNAFRKALYGTTSETATWRRCANYVNGNMENAVGRLYVEAAFAGESKHVVEDLIAQIREVFIQTLDDLTWMDAETKKKAEEKALAIKERIGYPDDIISNENKLNNEYLELNYKEEEYFENIIQNLKFSQSKQLKKLREKVDKDEWISGAAVVNAFYSSGRNQIVFPAGILQPPFFSARQSNSLNYGGIGMVIGHEITHGFDDNGRNFNKDGDLVDWWTQQSANNFKDQSQCMVYQYGNFTWDLAGGQHLNGINTLGENIADNGGIGQAYRAYQNYVKKNGEEKLLPGLDLNHKQLFFLNFAQVWCGTYRPEYAVNSIKTDVHSPGNFRIIGTLQNSAEFADAFHCRKNSYMNPERKCRVW
fold rise of the apparent Km of the enzyme for substrate (substance P), rat renal membranes [2]: raising the apparent Km of the enzyme for substrate by 2-5 fold

B3: SMR1-QHNPR (SMR1-Pentapeptide) (peptide)
peptide: QHNPR
modifications: also: Gln form interconverts with pGlu form by N-terminal cyclization
IC50 (concentration of the inhibitor reducing by half the degradation of 3H-substance P) on rat spinal cord membrane preparations [3]: ~100 nM | IC50 of inhibition of 3H substance-P degradation by rat kidney membranes [3]: 500 to 1000 nM | inhibitory potency (IC50) with rat spinal NEP [3]: 400 nM | inhibitory potency (IC50) with purified rabbit renal NEP and synthetic specific fluorogenic substrate [4]: 600 nM
